Results reported in patent publication US20240301086A1 (APTEVO RESEARCH AND DEVELOPMENT, published 2024).

T1: Full-length cynomolgus monkey PSMA (TSC308), on cells (cynomolgus monkey, UniProt Q04609 1-750 (human entry))
T1 construct: also called cyno PSMA; CHOK1SV/cynoPSMA
T1 chain: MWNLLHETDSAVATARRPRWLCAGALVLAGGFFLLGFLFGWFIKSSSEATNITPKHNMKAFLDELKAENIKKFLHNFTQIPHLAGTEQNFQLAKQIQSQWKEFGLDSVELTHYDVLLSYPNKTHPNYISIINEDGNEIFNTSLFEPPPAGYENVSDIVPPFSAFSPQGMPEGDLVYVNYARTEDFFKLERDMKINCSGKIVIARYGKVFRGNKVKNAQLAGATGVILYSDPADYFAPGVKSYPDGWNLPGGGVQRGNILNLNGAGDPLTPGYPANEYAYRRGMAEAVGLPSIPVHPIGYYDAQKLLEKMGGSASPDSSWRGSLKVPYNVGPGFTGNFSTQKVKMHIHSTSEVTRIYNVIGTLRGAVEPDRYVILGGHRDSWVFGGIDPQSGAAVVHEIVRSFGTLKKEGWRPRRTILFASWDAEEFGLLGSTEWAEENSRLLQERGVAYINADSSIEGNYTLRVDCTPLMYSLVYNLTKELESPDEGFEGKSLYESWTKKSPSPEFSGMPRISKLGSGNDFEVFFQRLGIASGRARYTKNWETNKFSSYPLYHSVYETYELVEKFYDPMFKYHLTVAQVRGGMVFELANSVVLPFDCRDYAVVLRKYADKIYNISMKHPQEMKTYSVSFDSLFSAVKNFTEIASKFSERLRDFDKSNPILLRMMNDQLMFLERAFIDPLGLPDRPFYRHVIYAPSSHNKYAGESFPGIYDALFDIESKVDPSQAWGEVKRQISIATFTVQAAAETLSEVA


Columns and labels:
[1] = target: T2, cynomolgus Fcγ receptor III (cynomolgus monkey, UniProt Q8SPW2 17-208); assay: SPR (Biacore T200), construct amine-coupled, soluble cyno Fcγ receptor as analyte
T2 construct: Called recombinant, soluble; also called Cyno RIII
T2 sequence (Q8SPW2 17-208): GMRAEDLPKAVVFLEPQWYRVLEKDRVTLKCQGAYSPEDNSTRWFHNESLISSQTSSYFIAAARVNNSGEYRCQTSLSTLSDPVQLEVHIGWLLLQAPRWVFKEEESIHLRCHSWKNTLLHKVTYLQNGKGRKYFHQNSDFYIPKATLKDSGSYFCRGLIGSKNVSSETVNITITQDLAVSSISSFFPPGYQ
Procedure: (§1) The Fc region incorporated into anti-PSMA bispecific constructs contained mutations intended to reduce or abolish binding to common human and cynomolgus Fc gamma receptors. SPR experiments were conducted at 25° C. in HBS-EP+ with 0.2% BSA buffer on a Biacore T200 system to evaluate the impact of these mutations on binding. For these experiments, three flow cells of a CM5 sensor chip were immobilized with anti-PSMA bispecifics by standard amine coupling to a response level of ˜2000 RU. A blank immobilization was performed on flow cell #1 for purposes of background signal subtraction. Both human and cynomolgus monkey Fcγ receptors (purchased from R&D Systems) were diluted in HBS-EP+ with 0.2% BSA to 4-6 μM and then flowed as analytes at 30 μL/min for 120 seconds followed by a 240 second dissociation step. No regeneration step was required. Blank-subtracted sensorgrams were visually inspected for binding to each of the Fcγ receptor proteins. […] Attenuated binding to Fcγ receptors IIA (both polymorphic variants) and IIB/C was observed. PSMA01107 and PSMA01108 share the same Fc amino acid sequence and therefore equivalent Fcγ receptor binding behavior was expected.

[2] = target: human Fcγ receptor IIIA, V176 variant (human, UniProt P08637 17-208); assay: SPR (Biacore T200), construct amine-coupled, Fcγ receptor as analyte
human Fcγ receptor IIIA, V176 variant, sequence (P08637 other isoform, or with tags, fused parts or gaps mutant): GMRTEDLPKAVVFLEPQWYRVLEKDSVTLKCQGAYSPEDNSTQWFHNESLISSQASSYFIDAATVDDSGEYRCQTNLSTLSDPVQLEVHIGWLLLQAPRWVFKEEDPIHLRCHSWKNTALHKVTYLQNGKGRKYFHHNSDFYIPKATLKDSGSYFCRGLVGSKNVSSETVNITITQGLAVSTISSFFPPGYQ
Procedure: as §1

human Fcγ receptor IIIB = human Fcγ receptor IIIB (human, UniProt O75015 17-200); assay: as above
human Fcγ receptor IIIB, sequence (O75015 17-200): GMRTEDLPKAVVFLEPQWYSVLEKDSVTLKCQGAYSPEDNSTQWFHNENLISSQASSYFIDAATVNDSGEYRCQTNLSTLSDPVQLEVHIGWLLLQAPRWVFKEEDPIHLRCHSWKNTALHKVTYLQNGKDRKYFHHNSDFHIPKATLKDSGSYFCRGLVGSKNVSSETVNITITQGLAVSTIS
Procedure: as §1

human Fcγ receptor I = human Fcγ receptor I (human, UniProt P12314 16-288); assay: as above
human Fcγ receptor I, sequence (P12314 16-288): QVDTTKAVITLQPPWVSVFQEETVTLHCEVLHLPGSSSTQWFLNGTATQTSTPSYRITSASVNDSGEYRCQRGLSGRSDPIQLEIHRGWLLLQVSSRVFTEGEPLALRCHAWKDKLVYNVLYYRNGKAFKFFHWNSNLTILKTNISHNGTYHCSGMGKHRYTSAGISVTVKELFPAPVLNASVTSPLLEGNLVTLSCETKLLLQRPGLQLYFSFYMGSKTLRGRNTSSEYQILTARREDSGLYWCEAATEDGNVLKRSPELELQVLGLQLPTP
Procedure: as §1

[3] = target: human Fcγ receptor IIIA, F176 variant (human, UniProt P08637 17-208); assay: as above
human Fcγ receptor IIIA, F176 variant, sequence (P08637 17-208, change not shown): as the sequence (P08637 other isoform, or with tags, fused parts or gaps mutant) above, with V160F counted along it
Procedure: as §1

[4] = target: T1, Full-length cynomolgus monkey PSMA …; assay: flow cytometry on CHO-CynoPSMA cells, Median (PE); drawn table row 'Cyno PSMA binding affinity'
[5] = target: T3, human CD3ε in the TCR/CD3 complex on Jurkat cells (human, UniProt P07766 23-207); assay: flow cytometry on Jurkat cells, PE goat anti-human IgG Fc secondary, MFI (median)
T3 construct: whole, on cells; On the cells it stands in the whole TCR/CD3 complex; also called CD3 (+) cells; CD3-expressing Jurkat cells
T3 sequence (P07766 23-207, one chain of several): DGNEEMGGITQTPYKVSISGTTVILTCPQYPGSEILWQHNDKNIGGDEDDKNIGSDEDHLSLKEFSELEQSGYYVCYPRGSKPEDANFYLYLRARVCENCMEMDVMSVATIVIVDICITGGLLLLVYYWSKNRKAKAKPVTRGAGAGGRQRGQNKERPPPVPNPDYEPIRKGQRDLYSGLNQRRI
Procedure: (§2) Constructs were initially tested in CD3ε and PSMA binding assays on Jurkat and C4-2B cells. Cells were labelled at approximately 100,000 cells per well, in 96-well plates, with serial dilutions of bispecific constructs ranging in concentration from of 0.1 to 300 nM, for 30 min on ice. Primary label was followed by washes and incubation with PE-labeled minimum cross species reactive secondary antibody, goat anti-human IgG Fcγ, F(ab′)2 (Jackson Laboratory) for 30 minutes on ice. Washes and incubation were done in staining buffer (PBS with 0.2% BSA and 2 mM EDTA). Cells were collected using an BD™ LSRII or a BD FACSymphony™ flow cytometer (BD Biosciences) and analyzed by FlowJo flow cytometry analysis software. Median fluorescence intensity (MFI) of bound molecules on cells was determined after exclusion of doublets. Results were plotted and nonlinear regression analysis to determine EC50 values was performed using GraphPad Prism 7© graphing and statistics software.

[6] = target: T4, Full-length Human PSMA (TSC435), on cells (human, UniProt Q04609 1-750); assay: flow cytometry on C4-2B cells, PE goat anti-human IgG Fc secondary, MFI (median)
T4 construct: also called CHOK1SV/huPSMA; PSMA on C4-2B, 22RV1, LNCaP, MDA-PCa-2b cells
Procedure: as §2

[7] = target: T3, human CD3ε in the TCR/CD3 complex on …; assay: flow cytometry, drawn table 'On- Cell Binding Parameters', row 'Human CD3 binding affinity'
Procedure: as §2

[8] = target: T4, Full-length Human PSMA (TSC435), on …; assay: flow cytometry, drawn table 'On- Cell Binding Parameters', row 'Human PSMA binding affinity'
[9] = target: T3, human CD3ε in the TCR/CD3 complex on …; assay: flow cytometry on Jurkat cells, PE goat anti-human IgG Fc secondary, MFI (median); remark: listed apart in the source
Procedure: as §2

[10] = target: T4, Full-length Human PSMA (TSC435), on …; assay: flow cytometry on C4-2B cells, PE goat anti-human IgG Fc secondary, MFI (median); remark: listed apart in the source
Procedure: as §2

| Binder | binding result [1] | binding result [2] | binding result (human Fcγ receptor IIIB) | binding result (human Fcγ receptor I) | binding result [3] | EC50 [4] [nM] | Max [4] | EC50 [5] [nM] | EC50 [6] [nM] | EC50 [7] [nM] | Max [7] | EC50 [8] [nM] | Max [8] | EC50 [9] [nM] | EC50 [10] [nM] |
| --- | --- | --- | --- | --- | --- | --- | --- | --- | --- | --- | --- | --- | --- | --- | --- |
| TSC266 Anti PSMA scFv x Anti CD3 scFv ADAPTIR (bispecific antibody, The anti-PSMA domain is that of PSMA01012 and the anti-CD3 domain is DRA222; also called unoptimized parent construct; TSC266 control (PSMA × CD3 bispecific protein)) DIQMTQSPSAMSASVGDRVTITCRASKSISKYLAWFQQKPGKVPKLRIHSGSTLQSGVPSRFSGSGSGTEFTLTISSLQPEDFATYYCQQHIEYPWTFGQGTKVEIKRGGGGSGGGGSGGGGSQVQLVQSGAEVKKPGASVKVSCKASGYTFTDYYMHWVRQAPGQGLEWMGYFNPYNDYTRYAQKFQGRVTMTRDTSISTAYMELSSLRSDDTAVYYCARSDGYYDAMDYWGQGTTVTVSSSEPKSSDKTHTCPPCPAPEAAGAPSVFLFPPKPKDTLMISRTPEVTCVVVDVSHEDPEVKFNWYVDGVEVHNAKTKPREEQYNSTYRVVSVLTVLHQDWLNGKAYACAVSNKALPAPIEKTISKAKGQPREPQVYTLPPSRDELTKNQVSLTCLVKGFYPSDIAVEWESNGQPENNYKTTPPVLDSDGSFFLYSKLTVDKSRWQQGNVFSCSVMHEALHNHYTQKSLSLSPGQRHNNSSLNTGTQMAGHSPNSQVQLVESGGGVVQPGRSLRLSCKASGYTFTRSTMHWVRQAPGQGLEWIGYINPSSAYTNYNQKFKDRFTISADKSKSTAFLQMDSLRPEDTGVYFCARPQVHYDYNGFPYWGQGTPVTVSSGGGGSGGGGSGGGGSAQDIQMTQSPSSLSASVGDRVTMTCSASSSVSYMNWYQQKPGKAPKRWIYDSSKLASGVPARFSGSGSGTDYTLTISSLQPEDFATYYCQQWSRNPPTFGGGTKLQITSSS | no binding (tested: 4-6 µM) | no binding (tested: 4-6 µM) | no binding (tested: 4-6 µM) | no binding (tested: 4-6 µM) | no binding (tested: 4-6 µM) | 20 | 6000 | 2 | 7 | 2 | 15000 | 10 | 1400 | 2 | 7 |
| PSMA01107 Anti-PSMA scFv x Fc x linker x Anti CD3 scFv; Anti PSMA scFv x Fc (bispecific antibody, Heterodimer, bivalent for PSMA and monovalent for CD3 (VH-VL scFv at the C-terminus); also called PSMA1107) chain 1: QVQLVQSGAEVKKPGASVKVSCKASGYTFTDYYMHWVRQAPGQGLEWMGYFNPYNDYTRYAQKFQGRVTMTRDTSTSTVYMELSSLRSEDTAVYYCARSDGYYDAMDYWGQGTTVTVSSGGGGSGGGGSGGGGSGGGGSDIQMTQSPSSLSASVGDRVTITCRASKSISKYLAWYQQKPGKAPKLLIHSGSSLESGVPSRFSGSGSGTEFTLTISSLQPDDFATYYCQQHIEYPWTFGQGTKVEIKEPKSSDKTHTCPPCPAPPAAAPSVFLFPPKPKDTLMISRTPEVTCVVVDVSHEDPEVKFNWYVDGVEVHNAKTKPREEQYNSTYRVVSVLTVLHQDWLNGKEYKCAVSNKALPAPIEKTISKAKGQPREPQVYTLPPSRDELTKNQVSLWCLVKGFYPSDIAVEWESNGQPENNYKTTPPVLDSDGSFFLYSKLTVDKSRWQQGNVFSCSVMHEALHNHYTQKSLSLSPGGGGSPSQVQLVQSGAEVKKPGASVKVSCKASGYTFTRSTMHWVRQAPGQGLEWIGYINPSSAYTNYAQKFQGRVTLTADKSTSTAYMELSSLRSEDTAVYYCASPQVHYDYNGFPYWGQGTLVTVSSGGGGSGGGGSGGGGSGGGGSDIQMTQSPSSLSASVGDRVTITCRASSSVSYMNWYQQKPGKAPKRWIYDSSKLASGVPSRFSGSGSGTDFTLTISSLQPEDFATYYCQQWSRNPPTFGQGTKVEIKRS chain 2: QVQLVQSGAEVKKPGASVKVSCKASGYTFTDYYMHWVRQAPGQGLEWMGYFNPYNDYTRYAQKFQGRVTMTRDTSTSTVYMELSSLRSEDTAVYYCARSDGYYDAMDYWGQGTTVTVSSGGGGSGGGGSGGGGSGGGGSDIQMTQSPSSLSASVGDRVTITCRASKSISKYLAWYQQKPGKAPKLLIHSGSSLESGVPSRFSGSGSGTEFTLTISSLQPDDFATYYCQQHIEYPWTFGQGTKVEIKEPKSSDKTHTCPPCPAPPAAAPSVFLFPPKPKDTLMISRTPEVTCVVVDVSHEDPEVKFNWYVDGVEVHNAKTKPREEQYNSTYRVVSVLTVLHQDWLNGKEYKCAVSNKALPAPIEKTISKAKGQPREPQVYTLPPSRDELTKNQVSLSCAVKGFYPSDIAVEWESNGQPENNYKTTPPVLDSDGSFFLVSKLTVDKSRWQQGNVFSCSVMHEALHNHYTQKSLSLSPG | no binding (tested: 4-6 µM) | no binding (tested: 4-6 µM) | no binding (tested: 4-6 µM) | no binding (tested: 4-6 µM) | no binding (tested: 4-6 µM) | 5 | 22000 | > 200 | 1 | > 200 | 2000 | 1 | 2400 | > 208 | 1 |
